According to patent publication US20040180051A1 (published 2004):

B1: chimeric ATR-5 antibody (antibody, V domains shown)
VH: EVQLQQSGTNLVRPGALVKLSCKGSGFNIKDYYMHWVKQRPEQGLEWIGGNDPANGHSMYDPKFQGKASITADTSSNTAYLQLSSLTSEDTAVYFCARDSGYAMDYWGQGTSVTVSS
VL: DIKMTQSPSSMYASLGERVTITCKASQDIKSFLSWYQQKPWKSPKTLIYYATSLADGVPSRFSGSGSGQDYSLTINNLESDDTATYYCLQHGESPYTFGGGTKLEIK
notes: Mouse V regions on human C regions; also called ch-ch; chimeric antibody
B2: humanized H chain version “j” combined with a chimeric L chain (antibody, V domains shown)
VH: QVQLLESGAVLARPGTSVKISCKASGFNIKDYYMHWVKQRPGQGLEWIGGNDPANGHSMYDPKFQGRVTFTADTSANTAYMELRSLRSADTAVYYCARDSGYAMDYWGQGTLVTVSS
VL: B1 VL
notes: expressed in COS-7; also called j-ch
B3: humanized H chain version “a” combined with the humanized L chain version “a” (antibody, V domains shown)
VH: QVQLLESGAVLARPGTSVKISCKASGFNIKDYYMHWVKQRPGQGLEWIGGNDPANGHSMYDPKFQGRAKLTAATSASIAYLEFSSLTNEDSAVYYCARDSGYAMDYWGQGTLVTVSS
VL: DIQMTQSPSSLSASVGDRVTITCKASQDIKSFLSWYQQKPGKAPKLLIYYATSLADGVPSRFSGSGSGTDFTLTISSLQPEDFATYYCLQHGESPYTFGGGTKVEIK
notes: expressed in COS-7; also called a-a
B4: humanized H chain version “c” combined with a chimeric L chain (antibody, V domains shown)
VH: QVQLLESGAVLARPGTSVKISCKASGFNIKDYYMHWVKQRPGQGLEWIGGNDPANGHSMYDPKFQGRVTMLVDTSKNQFSLRLSSVTAADTAVYYCARDSGYAMDYWGQGTLVTVSS
VL: B1 VL
notes: expressed in COS-7; also called c-ch

Key:
[1] = target: T1, human tissue factor (human TF) on human bladder carcinoma cells J82 (human, UniProt P13726 33-295); test: cell ELISA on fixed J82 cells; reference antibody (CHO DG44 expressed)
T1 construct: whole, on cells; Target of the cell ELISA; also called the antigen
Description: (§1) Cell ELISA plates for measurement of antigen binding were prepared as follows. Cells used were human bladder carcinoma cells J82 (ATCC HTB-1). To 60 wells of a 96-well cell culture plate, 1×10⁵ J82 cells were inoculated. This was cultured (RPMI1640 medium containing 10% fetal bovine serum (GIBCO)) for one day in a CO₂ incubator to allow the cells to be attached thereto. After discarding the culture liquid, each well was washed twice with 300 μl PBS. 100 μl of PBS containing 4% paraformaldehyde (hereinafter referred to as PFA/PBS) was added to each well, and placed on ice for 10 minutes to immobilize the cells.

[2] = target: T1, human tissue factor (human TF) on human …; test: cell ELISA on fixed J82 cells
Description: as §1

Row | binding result [1] | binding result [2] | Binder
1 | binds | – | B1
2 | – | binds | B2
3 | – | binds | B3
4 | – | binds | B4
